Data on two substances can be found in patent US20230357340A1.

The target of experiment [1] is recombinant mouse IL-18 protein (mouse) (UniProt P70380).
Experiment [2] concerns the target recombinant human IL-18 (human) (UniProt Q14116). Kind of experiment: cell-based or functional assay.

recombinant mouse IL-18 protein (mouse), sequence (P70380 36-192 limits assumed): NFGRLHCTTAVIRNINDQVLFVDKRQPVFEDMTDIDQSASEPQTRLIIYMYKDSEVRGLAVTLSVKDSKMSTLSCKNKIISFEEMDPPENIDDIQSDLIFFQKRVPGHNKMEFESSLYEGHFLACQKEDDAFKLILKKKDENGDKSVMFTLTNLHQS
recombinant human IL-18 (human), sequence (Q14116 37-193 limits assumed): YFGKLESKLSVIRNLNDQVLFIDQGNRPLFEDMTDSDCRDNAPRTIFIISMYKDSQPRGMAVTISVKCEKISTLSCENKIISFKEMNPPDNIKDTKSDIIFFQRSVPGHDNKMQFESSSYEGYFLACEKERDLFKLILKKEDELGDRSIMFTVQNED

Take “hIL18BP-His(SinoBio.) (from UniProt O95998)”: in experiment [1], the IC50 (read off the curve); mouse IL-18-induced IFN-γ secretion by mouse CD4+ T cells was 1 nM.
Turning to “recombinant human interleukin-18-binding protein with C-terminal His-tag (hIL18BP-his8) (from UniProt O95998 31-194)”, the IC50 (read off the curve); mouse IL-18-induced IFN-γ secretion by mouse CD4+ T cells in experiment [1] is 0.3 nM. For the same substance, the IC50 of inhibition of IL-18-induced IFN-γ production in KG-1 cells in experiment [2] was 0.024 nM.
